Measured values taken from US20150361165A1 (SYDDANSK UNIVERSITET, published 2015).

Assays:
[1] = target: T1, human MFAP4 in tissue (human mammary artery) (human, UniProt P55083 22-255); test: immunohistochemistry on human mammary artery
T1 construct: Native protein detected by immunohistochemistry
T1 sequence (looked up): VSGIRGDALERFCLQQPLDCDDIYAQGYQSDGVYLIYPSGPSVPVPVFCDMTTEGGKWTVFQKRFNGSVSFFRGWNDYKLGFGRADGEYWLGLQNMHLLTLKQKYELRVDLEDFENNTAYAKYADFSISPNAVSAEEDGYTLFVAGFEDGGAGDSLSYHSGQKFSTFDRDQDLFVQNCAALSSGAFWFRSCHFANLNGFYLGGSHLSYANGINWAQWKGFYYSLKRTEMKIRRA

[2] = target: T2, mouse MFAP4 in tissue (mouse aorta) (mouse, UniProt Q9D1H9 23-257); test: immunohistochemistry on mouse aorta; no signal in mfap4-/- tissue
T2 construct: Native protein detected by immunohistochemistry; signal absent in mfap4-/- tissue; also called mouse MFAP4 homologue
T2 sequence (looked up): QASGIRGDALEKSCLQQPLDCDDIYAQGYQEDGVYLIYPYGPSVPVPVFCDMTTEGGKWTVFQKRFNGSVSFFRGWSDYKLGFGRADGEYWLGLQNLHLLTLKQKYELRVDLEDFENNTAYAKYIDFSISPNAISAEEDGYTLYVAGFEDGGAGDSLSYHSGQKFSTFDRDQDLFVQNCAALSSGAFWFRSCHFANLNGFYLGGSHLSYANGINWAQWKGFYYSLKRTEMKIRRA

B1: HG-HYB 7-14 (antibody, V domains shown)
VH: EVKVVESGGGLVQPGGSLRLSCATSGFTFSDFYMEWVRQPPGKRLEWIAASRNKANDYTTEYSASVKGRFIVSRDTSQSILYLQLNALRAEDTAIYYCARNYYDSSYWYFDVWGAGTTVTVSS
VL: DIVLTQSPSYLAASPGETITINCRASKSISKYLAWYQERPGKTNKLLIYSGSTLQSGIPSRFSGSGSGTDFTLTISSLEPEDFAMYYCQQHNEYPFTFGAGTKLELK
notes: Monoclonal antibody raised in MFAP4-deficient C57BL/6N mice against rMFAP4; also called FITC-anti-MFAP4 (HG-HYB 7-14)
- binding result [1]: binds
- binding result [2]: binds
